The values that follow are results of earlier work, collected in PMC3210452.

Where two headings read alike, the source gives them in different places.

Data set [1] concerns the target P-type voltage-gated calcium channel (UniProt P54282).
Data set [2] addresses Q-type voltage-gated calcium channel (UniProt O00555).
Data set [3] addresses P-type voltage-gated calcium channel (UniProt P54282). The source holds these as a separate data set.

Sequence of UniProt P54282 (P54282 whole entry): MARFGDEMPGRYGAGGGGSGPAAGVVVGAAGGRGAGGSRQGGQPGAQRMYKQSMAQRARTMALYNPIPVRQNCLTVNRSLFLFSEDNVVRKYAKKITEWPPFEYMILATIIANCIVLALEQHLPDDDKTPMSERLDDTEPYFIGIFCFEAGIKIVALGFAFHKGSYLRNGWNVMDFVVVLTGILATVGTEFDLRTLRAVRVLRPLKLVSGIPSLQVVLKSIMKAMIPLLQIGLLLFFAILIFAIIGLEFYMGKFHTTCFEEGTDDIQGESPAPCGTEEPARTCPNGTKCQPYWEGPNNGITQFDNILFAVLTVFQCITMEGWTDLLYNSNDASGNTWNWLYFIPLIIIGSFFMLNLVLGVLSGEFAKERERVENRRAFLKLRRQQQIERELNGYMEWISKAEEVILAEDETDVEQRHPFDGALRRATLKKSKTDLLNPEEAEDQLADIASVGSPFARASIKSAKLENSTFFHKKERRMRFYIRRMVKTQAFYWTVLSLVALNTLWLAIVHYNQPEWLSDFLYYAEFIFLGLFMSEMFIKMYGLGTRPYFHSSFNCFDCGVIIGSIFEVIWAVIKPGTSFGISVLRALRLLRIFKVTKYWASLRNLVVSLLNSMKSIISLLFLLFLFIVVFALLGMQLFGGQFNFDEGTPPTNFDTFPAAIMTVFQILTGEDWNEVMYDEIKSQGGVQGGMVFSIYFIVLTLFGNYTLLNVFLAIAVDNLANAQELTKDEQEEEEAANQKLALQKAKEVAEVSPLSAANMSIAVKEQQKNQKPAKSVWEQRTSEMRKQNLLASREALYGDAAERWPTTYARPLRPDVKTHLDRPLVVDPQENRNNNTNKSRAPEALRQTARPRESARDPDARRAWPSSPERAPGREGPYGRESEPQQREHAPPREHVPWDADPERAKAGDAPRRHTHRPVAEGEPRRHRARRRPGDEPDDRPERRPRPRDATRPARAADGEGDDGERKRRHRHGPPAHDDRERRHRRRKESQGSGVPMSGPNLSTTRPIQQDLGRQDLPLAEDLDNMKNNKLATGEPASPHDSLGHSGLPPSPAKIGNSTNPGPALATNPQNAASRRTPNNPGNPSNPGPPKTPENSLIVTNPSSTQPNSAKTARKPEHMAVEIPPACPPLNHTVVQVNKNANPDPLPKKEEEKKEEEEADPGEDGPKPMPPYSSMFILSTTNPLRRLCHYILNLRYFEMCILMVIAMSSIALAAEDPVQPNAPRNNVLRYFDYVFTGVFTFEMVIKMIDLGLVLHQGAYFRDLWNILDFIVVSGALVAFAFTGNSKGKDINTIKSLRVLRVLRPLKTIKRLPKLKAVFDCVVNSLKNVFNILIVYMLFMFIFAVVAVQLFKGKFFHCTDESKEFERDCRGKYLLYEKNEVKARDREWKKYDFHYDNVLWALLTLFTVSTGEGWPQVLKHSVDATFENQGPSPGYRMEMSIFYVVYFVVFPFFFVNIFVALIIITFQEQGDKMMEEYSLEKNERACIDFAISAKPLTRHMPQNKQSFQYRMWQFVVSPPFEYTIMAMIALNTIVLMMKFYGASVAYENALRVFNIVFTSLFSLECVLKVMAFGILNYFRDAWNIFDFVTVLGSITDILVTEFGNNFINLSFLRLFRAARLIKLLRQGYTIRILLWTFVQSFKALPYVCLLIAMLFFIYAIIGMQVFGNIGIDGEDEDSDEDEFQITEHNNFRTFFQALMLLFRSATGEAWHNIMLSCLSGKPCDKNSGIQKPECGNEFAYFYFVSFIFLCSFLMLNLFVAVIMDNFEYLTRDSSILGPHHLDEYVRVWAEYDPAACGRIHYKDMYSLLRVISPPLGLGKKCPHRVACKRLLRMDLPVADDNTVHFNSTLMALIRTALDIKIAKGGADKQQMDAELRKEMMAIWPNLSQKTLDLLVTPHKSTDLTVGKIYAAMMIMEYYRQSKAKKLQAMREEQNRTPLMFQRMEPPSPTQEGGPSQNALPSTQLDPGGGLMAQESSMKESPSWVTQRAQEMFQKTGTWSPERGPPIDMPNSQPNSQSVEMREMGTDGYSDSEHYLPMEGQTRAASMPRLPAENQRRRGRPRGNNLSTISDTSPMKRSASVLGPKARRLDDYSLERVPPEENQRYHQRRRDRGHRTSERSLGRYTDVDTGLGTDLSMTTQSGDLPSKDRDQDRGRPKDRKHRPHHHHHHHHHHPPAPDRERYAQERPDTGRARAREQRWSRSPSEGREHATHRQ
Sequence of UniProt O00555 (O00555 whole entry): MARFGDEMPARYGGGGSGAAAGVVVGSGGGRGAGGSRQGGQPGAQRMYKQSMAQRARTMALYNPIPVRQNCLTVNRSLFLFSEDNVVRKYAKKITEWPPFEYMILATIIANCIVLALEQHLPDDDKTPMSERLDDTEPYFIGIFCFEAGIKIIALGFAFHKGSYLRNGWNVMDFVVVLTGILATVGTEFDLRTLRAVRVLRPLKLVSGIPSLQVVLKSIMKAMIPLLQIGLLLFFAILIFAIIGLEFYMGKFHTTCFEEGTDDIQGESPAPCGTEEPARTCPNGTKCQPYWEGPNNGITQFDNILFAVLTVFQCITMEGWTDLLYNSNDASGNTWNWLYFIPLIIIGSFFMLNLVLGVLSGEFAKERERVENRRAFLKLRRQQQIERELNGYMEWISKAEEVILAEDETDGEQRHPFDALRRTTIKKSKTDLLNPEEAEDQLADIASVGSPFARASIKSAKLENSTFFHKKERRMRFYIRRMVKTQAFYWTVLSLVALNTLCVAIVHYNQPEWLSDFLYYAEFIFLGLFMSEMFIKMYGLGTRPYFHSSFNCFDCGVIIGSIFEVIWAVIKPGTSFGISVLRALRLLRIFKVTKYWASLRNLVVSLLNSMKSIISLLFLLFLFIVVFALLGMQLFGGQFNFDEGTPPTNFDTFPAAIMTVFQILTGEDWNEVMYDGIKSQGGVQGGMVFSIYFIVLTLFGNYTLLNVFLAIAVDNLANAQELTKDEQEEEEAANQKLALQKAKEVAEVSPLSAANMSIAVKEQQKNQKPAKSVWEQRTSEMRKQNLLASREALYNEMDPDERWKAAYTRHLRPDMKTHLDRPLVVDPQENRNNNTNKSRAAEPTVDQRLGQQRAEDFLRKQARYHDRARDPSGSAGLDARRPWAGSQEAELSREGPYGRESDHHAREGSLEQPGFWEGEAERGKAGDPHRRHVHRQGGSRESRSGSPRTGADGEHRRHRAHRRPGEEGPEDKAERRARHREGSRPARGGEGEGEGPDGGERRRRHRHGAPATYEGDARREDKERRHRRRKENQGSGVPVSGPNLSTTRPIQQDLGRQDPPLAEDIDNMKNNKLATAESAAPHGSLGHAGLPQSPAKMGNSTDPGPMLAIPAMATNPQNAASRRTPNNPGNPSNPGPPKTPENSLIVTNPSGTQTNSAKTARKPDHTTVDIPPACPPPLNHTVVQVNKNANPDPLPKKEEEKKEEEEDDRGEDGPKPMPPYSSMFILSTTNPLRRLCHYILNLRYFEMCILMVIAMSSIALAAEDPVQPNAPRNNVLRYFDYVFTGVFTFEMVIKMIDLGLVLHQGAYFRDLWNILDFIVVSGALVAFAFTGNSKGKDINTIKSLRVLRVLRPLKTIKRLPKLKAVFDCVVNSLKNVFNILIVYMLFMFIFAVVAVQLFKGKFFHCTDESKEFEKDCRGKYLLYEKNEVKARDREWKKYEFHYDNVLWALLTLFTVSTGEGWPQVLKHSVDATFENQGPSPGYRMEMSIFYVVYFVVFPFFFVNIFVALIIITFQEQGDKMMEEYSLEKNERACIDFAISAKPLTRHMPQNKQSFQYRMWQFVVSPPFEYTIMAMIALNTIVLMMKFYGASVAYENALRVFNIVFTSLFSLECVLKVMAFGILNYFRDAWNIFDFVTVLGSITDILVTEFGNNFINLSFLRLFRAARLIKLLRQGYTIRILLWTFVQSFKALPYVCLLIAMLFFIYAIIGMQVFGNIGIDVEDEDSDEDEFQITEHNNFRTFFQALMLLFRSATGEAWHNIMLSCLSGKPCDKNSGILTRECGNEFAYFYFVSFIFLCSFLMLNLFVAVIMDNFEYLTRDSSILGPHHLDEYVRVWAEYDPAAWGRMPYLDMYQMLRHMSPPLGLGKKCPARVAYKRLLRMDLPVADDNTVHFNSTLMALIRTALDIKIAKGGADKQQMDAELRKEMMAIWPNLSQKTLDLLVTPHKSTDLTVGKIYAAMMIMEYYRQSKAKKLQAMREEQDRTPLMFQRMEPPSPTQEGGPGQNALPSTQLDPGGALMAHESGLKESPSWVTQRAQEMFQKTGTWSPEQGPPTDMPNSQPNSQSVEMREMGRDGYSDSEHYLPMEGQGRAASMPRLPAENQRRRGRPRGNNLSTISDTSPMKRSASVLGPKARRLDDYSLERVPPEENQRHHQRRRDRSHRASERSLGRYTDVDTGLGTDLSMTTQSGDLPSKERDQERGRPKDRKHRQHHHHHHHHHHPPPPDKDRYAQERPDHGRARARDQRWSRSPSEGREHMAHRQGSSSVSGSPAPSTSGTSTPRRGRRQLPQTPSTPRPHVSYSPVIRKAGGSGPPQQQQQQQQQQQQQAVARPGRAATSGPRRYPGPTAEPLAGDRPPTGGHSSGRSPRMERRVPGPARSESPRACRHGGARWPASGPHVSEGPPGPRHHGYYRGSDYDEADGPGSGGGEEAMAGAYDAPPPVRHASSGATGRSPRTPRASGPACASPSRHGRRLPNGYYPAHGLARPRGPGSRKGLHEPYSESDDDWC

In the case of ω-agatoxin IVA (from UniProt P30288), the dissociation constant Kd is 2 nM in data set [1] and 100 nM in data set [2]. Turning to ω-agatoxin IVB (from UniProt P37045), the Kd in data set [3] is 3 nM.
